Test results reported in patent publication US20250382352A1 (SCG CELL THERAPY PTE, published 2025).
Changes are numbered by the printed parent chain.

T1: HBsAg recombinant protein (hepatitis B virus)
T1 chain: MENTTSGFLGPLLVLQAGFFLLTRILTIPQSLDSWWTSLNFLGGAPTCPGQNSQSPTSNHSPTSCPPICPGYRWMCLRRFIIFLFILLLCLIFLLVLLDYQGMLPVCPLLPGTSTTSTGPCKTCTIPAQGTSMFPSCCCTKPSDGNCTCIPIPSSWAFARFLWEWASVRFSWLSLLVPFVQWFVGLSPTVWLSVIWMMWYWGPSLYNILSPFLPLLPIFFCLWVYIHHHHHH

B1: BsAb2-6-002 (bispecific antibody)
heavy: not shown
light: QTVVTQEPSLTVSPGGTVTLTCRSSTGAVTTSNYANWVQQKPGQAPRGLIGGTNKRAPGTPARFSGSLLGDKAALTLSGVQPEDEAEYYCALWYSNLWVFGGGTKLTVLRTVAAPSVFIFPPSDEQLKSGTASVVCLLNNFYPREAKVQWKVDNALQSGNSQESVTEQDSKDSTYSLSSTLTLSKADYEKHKVYACEVTHQGLSSPVTKSFNRGEC
notes: also called VH1VL2
B2: BsAb2-5-002 (bispecific antibody)
heavy: not shown
light: B1 light
notes: also called VH1VL2
B3: BsAb2-6-007 (bispecific antibody)
heavy: not shown
light: B1 light
notes: also called VH2VL2
B4: BsAb2-5-022 (bispecific antibody)
heavy: not shown
light: B1 light
notes: also called VH5VL2
B5: BsAb2-5-007 (bispecific antibody)
heavy: not shown
light: B1 light
notes: also called VH2VL2
B6: BsAb2-5-023 (bispecific antibody)
heavy: not shown
light: B1 light with T2A, Y89F
notes: also called VH5VL3
B7: BsAb2-6-027 (bispecific antibody)
heavy: not shown
light: B1 light
notes: also called VH6VL2
B8: BsAb2-6-003 (bispecific antibody)
heavy: not shown
light: B1 light with T2A, Y89F
notes: also called VH1VL3
B9: BsAb2-6-013 (bispecific antibody)
heavy: not shown
light: B1 light with T2A, Y89F
notes: also called VH3VL3
B10: BsAb2-6-012 (bispecific antibody)
heavy: not shown
light: B1 light
notes: also called VH3VL2
B11: BsAb2-6-018 (bispecific antibody)
heavy: not shown
light: B1 light with T2A, Y89F
notes: also called VH4VL3
B12: BsAb2-5-006 (bispecific antibody)
heavy: not shown
light: B1 light with G48A, G59W
notes: also called VH2VL1
B13: BsAb2-6-008 (bispecific antibody)
heavy: not shown
light: B1 light with T2A, Y89F
notes: also called VH2VL3
B14: BsAb2-5-008 (bispecific antibody)
heavy: not shown
light: B1 light with T2A, Y89F
notes: also called VH2VL3
B15: BsAb2-6-023 (bispecific antibody)
heavy: not shown
light: B1 light with T2A, Y89F
notes: also called VH5VL3
B16: BsAb2-6-028 (bispecific antibody)
heavy: not shown
light: B1 light with T2A, Y89F
notes: also called VH6VL3
B17: BsAb2-5-021 (bispecific antibody)
heavy: not shown
light: B1 light with G48A, G59W
notes: also called VH5VL1
B18: BsAb2-5-018 (bispecific antibody)
heavy: not shown
light: B1 light with T2A, Y89F
notes: also called VH4VL3
B19: BsAb2-5-012 (bispecific antibody)
heavy: not shown
light: B1 light
notes: also called VH3VL2
B20: BsAb2-5-026 (bispecific antibody)
heavy: not shown
light: B1 light with G48A, G59W
notes: also called VH6VL1
B21: BsAb2-5-013 (bispecific antibody)
heavy: not shown
light: B1 light with T2A, Y89F
notes: also called VH3VL3
B22: BsAb2-6-022 (bispecific antibody)
heavy: not shown
light: B1 light
notes: also called VH5VL2
B23: BsAb2-5-028 (bispecific antibody)
heavy: not shown
light: B1 light with T2A, Y89F
notes: also called VH6VL3
B24: BsAb2-5-003 (bispecific antibody)
heavy: not shown
light: B1 light with T2A, Y89F
notes: also called VH1VL3
B25: BsAb2-5-027 (bispecific antibody)
heavy: not shown
light: B1 light
notes: also called VH6VL2
B26: BsAb2-5-005 (bispecific antibody)
heavy: not shown
light: QTVVTQEPSFSVSPGGTVTLTCRSSTGAVTTSNYANWVQQTPGQAPRGLIGGTNKRAPGVPDRFSGSILGDKAALTITGAQADDESDYYCALWYSNLWVFGGGTKLTVLRTVAAPSVFIFPPSDEQLKSGTASVVCLLNNFYPREAKVQWKVDNALQSGNSQESVTEQDSKDSTYSLSSTLTLSKADYEKHKVYACEVTHQGLSSPVTKSFNRGEC
notes: also called VH1VL5
B27: BsAb2-6-005 (bispecific antibody)
heavy: not shown
light: B26 light
notes: also called VH1VL5
B28: BsAb2-6-030 (bispecific antibody)
heavy: not shown
light: B26 light
notes: also called VH6VL5
B29: BsAb2-5-020 (bispecific antibody)
heavy: not shown
light: B26 light
notes: also called VH4VL5
B30: BsAb2-5-030 (bispecific antibody)
heavy: not shown
light: B26 light
notes: also called VH6VL5
B31: BsAb2-6-025 (bispecific antibody)
heavy: not shown
light: B26 light
notes: also called VH5VL5
B32: BsAb2-5-025 (bispecific antibody)
heavy: not shown
light: B26 light
notes: also called VH5VL5
B33: BsAb2-6-020 (bispecific antibody)
heavy: not shown
light: B26 light
notes: also called VH4VL5
B34: BsAb2-6-015 (bispecific antibody)
heavy: not shown
light: B26 light
notes: also called VH3VL5
B35: BsAb2-6-010 (bispecific antibody)
heavy: not shown
light: B26 light
notes: also called VH2VL5
B36: BsAb2-5-015 (bispecific antibody)
heavy: not shown
light: B26 light
notes: also called VH3VL5

biological target: T2, rhesus CD3ε recombinant protein (rhesus); assay: ELISA, recombinant protein
T2 construct: also called rhesus CD38 [sic]
Procedure: (§1) Anti-HBsAg/anti-CD3 bispecific antibodies generated in Example 1 are analyzed by standard ELISA techniques for their binding properties to HBsAg, human CD3E, and rhesus CD3ε recombinant protein, respectively.

Going from B1 to B2, the EC50 rises from 0.14 nM to 0.3 nM (2.1-fold).

Compared with B3, B4 is 1.6-fold higher in EC50: 0.19 nM for the first, 0.31 nM for the second.

Going from B5 to B6, the EC50 falls from 0.4 nM to 0.22 nM (1.8-fold). The second is the more potent here.

B7 and B8 are within 1.5-fold of each other in EC50: 0.21 nM for the first, 0.17 nM for the second.

B9 and B10 are within 1.5-fold of each other in EC50: 0.26 nM for the first, 0.24 nM for the second.

Going from B11 to B12, the EC50 rises from 0.16 nM to 2.12 nM (13-fold).

B13 and B14 are within 1.5-fold of each other in EC50: 0.28 nM for the first, 0.24 nM for the second.

B15 and B16 are within 1.5-fold of each other in EC50: 0.26 nM for the first, 0.21 nM for the second.

Compared with B17, B18 is 16-fold lower in EC50: 3.88 nM for the first, 0.24 nM for the second. The second is the more potent here.

Compared with B19, B20 is 8.7-fold higher in EC50: 0.24 nM for the first, 2.09 nM for the second. The first is the more potent here.

B21 and B22 are within 1.5-fold of each other in EC50: 0.26 nM for the first, 0.23 nM for the second.

B23 and B24 are within 1.5-fold of each other in EC50: 0.31 nM for the first, 0.34 nM for the second.

B25 and B26 are within 1.5-fold of each other in EC50: 0.28 nM for the first, 0.31 nM for the second.

B27 and B28 are within 1.5-fold of each other in EC50: 0.18 nM for the first, 0.13 nM for the second.

B29 and B30 are within 1.5-fold of each other in EC50: 0.26 nM for the first, 0.23 nM for the second.

Going from B31 to B32, the EC50 falls from 0.5 nM to 0.25 nM (2-fold).

Compared with B33, B34 is 1.5-fold higher in EC50: 0.12 nM for the first, 0.18 nM for the second. The first is the more potent here.

B35 and B36 are within 1.5-fold of each other in EC50: 0.23 nM for the first, 0.27 nM for the second.

biological target: T3, human CD3ε recombinant protein (human, UniProt P07766 23-126); assay: ELISA, recombinant protein
T3 construct: also called human CD3E; huCD3ε
Procedure: as §1

T3 sequence (P07766 23-126 limits assumed): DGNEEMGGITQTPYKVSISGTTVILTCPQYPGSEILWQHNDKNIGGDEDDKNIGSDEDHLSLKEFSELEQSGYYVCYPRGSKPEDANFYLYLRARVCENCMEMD

B9 and B10 are within 1.5-fold of each other in EC50: 0.33 nM for the first, 0.32 nM for the second.

Compared with B11, B18 is 1.5-fold lower in EC50: 0.5 nM for the first, 0.33 nM for the second.

B19 and B21 are within 1.5-fold of each other in EC50: 0.32 nM for the first, 0.33 nM for the second.

B29 and B33 are within 1.5-fold of each other in EC50: 0.28 nM for the first, 0.32 nM for the second.

B34 and B36 are within 1.5-fold of each other in EC50: 0.19 nM for the first, 0.27 nM for the second.

Biological target: T1, HBsAg recombinant protein
Assay: ELISA, recombinant protein
Procedure: as §1

Going from B1 to B2, the EC50 falls from 0.46 nM to 0.16 nM (2.9-fold).

First: B3
Second: B4
The EC50 of the first is 2.6-fold higher: 0.42 nM for the first, 0.16 nM for the second. The second is the more potent here.

B5 and B6 are within 1.5-fold of each other in EC50: 0.23 nM for the first, 0.18 nM for the second.

Compared with B7, B8 is 1.5-fold lower in EC50: 0.72 nM for the first, 0.47 nM for the second. The second is the more potent here.

B9 and B10 are within 1.5-fold of each other in EC50: 0.47 nM for the first, 0.45 nM for the second.

B11 and B12 are within 1.5-fold of each other in EC50: 0.73 nM for the first, 0.9 nM for the second.

Going from B13 to B14, the EC50 falls from 0.57 nM to 0.19 nM (3-fold).

B15 and B16 are within 1.5-fold of each other in EC50: 1.09 nM for the first, 0.83 nM for the second.

B17 and B18 are within 1.5-fold of each other in EC50: 0.14 nM for the first, 0.12 nM for the second.

B19 and B20 are within 1.5-fold of each other in EC50: 0.16 nM for the first, 0.18 nM for the second.

Going from B21 to B22, the EC50 rises from 0.17 nM to 0.77 nM (4.5-fold). The first is the more potent here.

B23 and B24 are within 1.5-fold of each other in EC50: 0.19 nM for the first, 0.21 nM for the second.

B25 and B26 are within 1.5-fold of each other in EC50: 0.16 nM for the first, 0.15 nM for the second.

B27 and B28 are within 1.5-fold of each other in EC50: 0.45 nM for the first, 0.48 nM for the second.

B29 and B30 are within 1.5-fold of each other in EC50: 0.16 nM for the first, 0.15 nM for the second.

Compared with B31, B32 is 7.5-fold lower in EC50: 1.5 nM for the first, 0.2 nM for the second. The second is the more potent here.

First: B33
Second: B34
The EC50 of the first is 1.7-fold higher: 0.56 nM for the first, 0.33 nM for the second.

First: B35
Second: B36
The EC50 of the first is 2.7-fold higher: 0.46 nM for the first, 0.17 nM for the second. The second is the more potent here.
